Reference: patent US20210147536A1 (MAB VENTURE BIOPHARM, published 2021)

Columns and labels:
[1] = target: T1, human LAG-3-6*His tag recombinant fusion protein (human, UniProt P18627 23-450, biotin-labelled in panning and in Example 9); experiment: BLI Octet Red96, MV705-3 on AHC sensor, human LAG-3-6*His at 500 nM, 1:1 model
T1 construct: Bought protein; also called hLAG-3-6*his tag recombinant protein; human LAG-3-his tag recombinant fusion protein
T1 sequence: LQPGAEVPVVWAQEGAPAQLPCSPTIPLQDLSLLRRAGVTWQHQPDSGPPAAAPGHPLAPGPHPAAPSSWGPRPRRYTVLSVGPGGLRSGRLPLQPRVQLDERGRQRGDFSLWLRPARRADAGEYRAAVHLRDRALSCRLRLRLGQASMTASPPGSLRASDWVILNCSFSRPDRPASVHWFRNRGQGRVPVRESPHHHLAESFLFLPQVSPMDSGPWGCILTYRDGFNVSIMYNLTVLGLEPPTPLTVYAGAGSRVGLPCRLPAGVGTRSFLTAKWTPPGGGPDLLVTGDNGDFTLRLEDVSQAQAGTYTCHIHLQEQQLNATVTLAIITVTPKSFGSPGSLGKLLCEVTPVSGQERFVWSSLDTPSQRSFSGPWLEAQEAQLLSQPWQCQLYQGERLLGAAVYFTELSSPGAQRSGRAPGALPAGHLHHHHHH

[2] = target: T1, human LAG-3-6*His tag recombinant …; experiment: BLI (Octet Red96), biotinylated hLAG-3-6*his on SA biosensor, antibody 100 µg/mL in solution, 1:2 binding model
[3] = target: T2, human LAG-3 on the cell surface (human, UniProt P18627 23-525); experiment: flow cytometry on activated human CD4+ T cells expressing LAG-3, PE anti-human antibody
T2 construct: whole, on cells; also called cells expressing the human LAG-3
T2 sequence (looked up): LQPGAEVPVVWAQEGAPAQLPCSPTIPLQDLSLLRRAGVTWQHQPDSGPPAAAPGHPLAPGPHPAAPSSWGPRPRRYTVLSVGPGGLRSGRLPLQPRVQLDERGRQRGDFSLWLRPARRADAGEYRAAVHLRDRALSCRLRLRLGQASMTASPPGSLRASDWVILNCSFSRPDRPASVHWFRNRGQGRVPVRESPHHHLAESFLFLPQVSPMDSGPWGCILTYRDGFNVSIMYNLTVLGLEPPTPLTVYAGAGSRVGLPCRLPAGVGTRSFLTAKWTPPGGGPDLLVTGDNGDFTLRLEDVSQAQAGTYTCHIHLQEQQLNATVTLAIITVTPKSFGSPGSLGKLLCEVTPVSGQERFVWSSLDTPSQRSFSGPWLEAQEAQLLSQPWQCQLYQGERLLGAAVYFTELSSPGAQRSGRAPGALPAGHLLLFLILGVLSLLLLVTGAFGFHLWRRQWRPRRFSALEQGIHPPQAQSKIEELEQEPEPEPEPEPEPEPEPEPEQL

[4] = target: T1, human LAG-3-6*His tag recombinant …; experiment: SPR BIAcore T200, antibody on CM5 chip, human LAG-3-6*His 0.352 to 45 nM as analyte
[5] = target: T2, human LAG-3 on the cell surface; experiment: cell-based or functional assay
[6] = target: T3, human LAG-3-mFc recombinant fusion protein (human); experiment: flow cytometry, blocking of hLAG-3-mFc (10 µg/ml) binding to MHC class II on Daudi cells
T3 construct: also called hLAG-3-mFc
T3 chain: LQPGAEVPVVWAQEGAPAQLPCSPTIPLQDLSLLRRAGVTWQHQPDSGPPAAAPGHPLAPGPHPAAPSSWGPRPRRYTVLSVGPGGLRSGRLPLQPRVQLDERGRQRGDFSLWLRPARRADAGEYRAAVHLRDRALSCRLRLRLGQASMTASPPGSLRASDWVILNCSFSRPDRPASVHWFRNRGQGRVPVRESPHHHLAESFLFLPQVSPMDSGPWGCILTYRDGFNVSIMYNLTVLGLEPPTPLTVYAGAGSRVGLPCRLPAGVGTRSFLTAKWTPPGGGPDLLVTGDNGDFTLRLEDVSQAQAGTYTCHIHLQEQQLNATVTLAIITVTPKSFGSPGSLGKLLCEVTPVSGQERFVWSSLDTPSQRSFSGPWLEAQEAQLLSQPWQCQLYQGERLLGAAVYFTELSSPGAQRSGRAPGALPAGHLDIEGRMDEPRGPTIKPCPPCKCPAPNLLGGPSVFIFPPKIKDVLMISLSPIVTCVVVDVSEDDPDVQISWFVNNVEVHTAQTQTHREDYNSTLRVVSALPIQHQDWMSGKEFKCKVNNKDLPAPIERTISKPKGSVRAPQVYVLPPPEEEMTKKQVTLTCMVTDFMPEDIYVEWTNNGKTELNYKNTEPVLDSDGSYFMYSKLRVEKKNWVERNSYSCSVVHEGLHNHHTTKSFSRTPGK

[7] = target: T1, human LAG-3-6*His tag recombinant …; experiment: ELISA, antibody coated at 1 µg/ml, human LAG-3-6*His titrated, anti-His HRP; range of three experiments

B1: anti-human LAG-3 full human monoclonal antibody MV705-3 (antibody, human IgG4, V domains shown)
VH: EVQLLESGAEVKKPGASVKVSCKASGYTFTSYGISWVRQAPGQGLEWMGWISAYNGNTNYAQKLQGRVTMTTDTSTSTAYMELRSLRSDDTAVYYCARDGWWELLRPDDAFDIWGQGTTVTVSS
VL: QLVLTQSPSVSVSPGQTASITCSGDKLGDKYAYWYQQKPGQAPVLVIYYDSDRPSGIPERFSGSNSGNTATLTISRVEAGDEADYYCQVWDSSSDQVVFGGGTQLTVLG
notes: Full IgG4 with lambda light chain; also called MV705-3(DD + DD)
With B1 as the binder, how does the Kd [1] read?
The Kd was 2.5 nM.

And the koff [1]?
The koff was 9.95e-05 s⁻¹.

What about the kon [1] of the same binder?
The kon was 39900 M⁻¹ s⁻¹.

What about the Kd [2] of the same binder?
The Kd was 3.04 nM.

And the koff [2]?
Its koff is 0.000373 s⁻¹.

And the kon [2]?
The kon was 122000 M⁻¹ s⁻¹.

And the EC50 [3]?
Its EC50 is 0.0019 µg/mL.

And the Kd [4]?
The Kd was 0.00851 nM.

And the koff [4]?
Its koff is 9.18e-07 s⁻¹.

And the kon [4]?
The kon was 108000 M⁻¹ s⁻¹.

What about the “EC50, ability to activate T cells in vitro (LAG3/NFAT Reporter-Jurkat)” value [5] of the same binder?
Its value is 0.13 µg/mL.

What about the IC50 [6] of the same binder?
The IC50 was 2.8 µg/mL.

What about the EC50 [7] of the same binder?
Its EC50 is 0.04 to 0.1 µg/mL.
